Assay results published in paper PMC4499121.

T1: Interleukin 10 receptor alpha chain, Fc fusion (human, UniProt Q13651 22-235)
T1 sequence: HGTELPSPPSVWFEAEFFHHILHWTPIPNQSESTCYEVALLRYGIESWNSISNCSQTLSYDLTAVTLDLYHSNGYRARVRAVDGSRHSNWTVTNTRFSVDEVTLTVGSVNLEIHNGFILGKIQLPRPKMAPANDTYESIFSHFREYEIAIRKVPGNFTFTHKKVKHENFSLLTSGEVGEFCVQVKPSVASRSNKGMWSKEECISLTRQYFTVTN

B1: cluster 1 Mutant 1 (ssRNA)
RNA: GGGAGAGAGGAAGAGGGAUGGGUAACACUCGAUUCUCCUAGCCCUCUAGAAAUUCCCCUCCCCGACGACUCGCUGAGAUCGAGA
modifications: DuraScribe IVT transcript (2'-F pyrimidines implied by the kit, not stated)
B2: cluster 1 Mutant 2 (ssRNA)
RNA: GGGAGAGAGGAAGAGGGAUGGGUAACACUCGAUUCUCCUAUCCCGCUAGAAAUUCCCCUCCCCGACGACUCGCUGAGAUCGAGA
modifications: DuraScribe IVT transcript (2'-F pyrimidines implied by the kit, not stated)

Legend:
[1] = biological target: T1, Interleukin 10 receptor alpha chain, Fc …; assay: double filter binding; text: mutant with highest change in affinity; Fig 3D legend gives that to Mutant 2; Binding buffer (composition and pH not given), 37 C, 5' 32P RNA with a range of protein concentrations, nitrocellulose/nylon double filter; Kd = protein concent
[2] = biological target: T1, Interleukin 10 receptor alpha chain, Fc …; assay: double filter binding; improved relative to cluster 1 seed; Binding buffer (composition and pH not given), 37 C, 5' 32P RNA with a range of protein concentrations, nitrocellulose/nylon double filter; Kd = protein concent

| Binder | Kd [1] [nM] | binding result [2] |
| --- | --- | --- |
| B1 | 27 |  |
| B2 |  | binds |
